From the supplement of paper PMC10567573
± gives the standard deviation.

Experiment: protein stability index of a GFP-peptide fusion (GPS, HEK-293T) (PSI 1-6); higher = more stable
[1] = treatment: DMSO, c terminus: a fixed tail appended
[2] = treatment: MLN4924 1 uM, 8 h, c terminus: a fixed tail appended
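Also: 24-mer peptide tiles fused after GFP, lentivirally expressed, FACS-sorted into six equal bins by GFP/DsRed ratio, decoded by Illumina sequencing, PSI is the read-weighted mean bin number.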

Sequence	protein stability index [1]	protein stability index [2]	protein stability index (treatment: DMSO, c terminus: native)	protein stability index (treatment: MLN4924 1 uM, 8 h, c terminus: native)
SLTDSVNHHSPGGSSDASGSYSST [ESRRG]	4.99 ± 0.28	5.1 ± 0.15		
WIIKSNYQGLPVRCVKSIIRQVLQ [SRPK2]	2.75 ± 0.48	2.78 ± 0.5		
MDRFDCQYLMATFVHVYITSFIRG [CDS1]	3.01 ± 0.56	3.67 ± 0.73		
MADVINVSVNLEAFSQAISAIQAL [MED27]	2.38 ± 0.72	2.23 ± 0.17		
AAVAQKPRSHFTTPAPMSSAWKTV [MYBL2]	3.06 ± 0.14	2.97 ± 0.22		
PPITEVESQVFSEKLATDTSTFEA [ZNF232]	5.33 ± 0.2	5.26 ± 0.083		
EKKLFECLTCGKSFRQGMHLTRHQ [ZNF263]	2.1 ± 0.41	2.27 ± 0.19		
LASYLEKVRQLERDNAELENLIRE [KRT33B]	3.31 ± 0.5	3.34 ± 0.36		
KEKEQENERKVAQLAEENERLKQE [DDIT3]	5.52 ± 0.1	5.55 ± 0.15		
MDETSPLVSPERAQPPDYTFPSGS [PI4K2A]	4.91 ± 0.15	4.78 ± 0.39		
VWTSPRRLVELAGQSLLKDEALAI [PRAME]	3.36 ± 0.15	3.34 ± 0.21		
ALVAAGGAPEDDEEDDGRGRGLLR [DENND6A]	5.5 ± 0.15	5.33 ± 0.14		
AALNALQPPEFRNESSLASTLKTL [VMA21]	3.44 ± 0.2	3.51 ± 0.18		
IPKSSDPEMRWNKGTILKASVDYI [TFE3]	2.79 ± 0.32	3.03 ± 0.26		
EFSIDNYPTDNTKVMIFKSSYSLS [MIA2]	2.75 ± 0.64	2.48 ± 0.3		
PSLAVNLADPYRSLKAPGARGPGP [JUNB]	4.01 ± 0.29	3.83 ± 0.17		
PKKIMPEAHSHYLYGHMLSAFRD [PPFIA4]			2.35 ± 0.23	2.77 ± 0.35
SEKGKPYVDIQGLTASTMEILLDF [KLHL12]	2.06 ± 0.5	2.25 ± 0.6		
SSAPDLMCLSPDRKMEVEELSPLA [CDC25B]	5 ± 0.37	5 ± 0.22		
SPSHKGIAAPHAGANVKPRNSTPP [ZC2HC1A]	4.92 ± 0.092	4.86 ± 0.54		
DSTNVEEAFKNILTEIYRIVSQKQ [RAB11B]	2.29 ± 0.2	2.49 ± 0.25		
VNKVCGAACSSKRSPIIDVKNDRD [SERPINB5]	3.77 ± 0.33	3.89 ± 0.15		

Sequence	protein stability index [1]	protein stability index [2]	protein stability index (treatment: DMSO, c terminus: native)	protein stability index (treatment: MLN4924 1 uM, 8 h, c terminus: native)
NFSVDRWERKEGGGGISCVLQDGC [CPOX]	3.8 ± 0.2	3.8 ± 0.33		
EMEVMRRQLYAVNRRLRALEEQGA [FATE1]	3.65 ± 0.29	3.68 ± 0.41		
QKITAIITFPSLESCEEKNQLILT [WDR41]	2.29 ± 0.16	2.22 ± 0.26		
AEASHYNSDLNNLLFCCQCVDVVF [RHOBTB3]	2.52 ± 0.49	2.54 ± 0.54		
RATNHLDQVPSMQDGSESFFFRHG [SPAG8]	3.51 ± 0.1	3.62 ± 0.28		
MGERKGVNKYYPPDFNPEKHGSLN [YJU2B]	4.11 ± 0.4	4.18 ± 0.12		
SMVPPSPAMAASKALGSDLDSSLA [SNAP91]	4.59 ± 0.097	4.6 ± 0.26		
NEKEKALQAQVQYQQQHEQQKKDL [SASS6]	5.66 ± 0.2	5.48 ± 0.5		
PNLASDSDLSRRSSSTMSKSEYME [KCNA1]	5.16 ± 0.27	5.22 ± 0.16		
LSVAPQIGMPFNQLGTLAGSKYYN [SMG5]	2.67 ± 0.15	2.71 ± 0.011		
FFHCYCPVGFGRRTDPNGDYIRRY [CRY1]	2.4 ± 0.048	2.34 ± 0.42		
LPELFHKIGVGAMTWSPLACGIVS [KCNAB2]	2.74 ± 0.42	2.84 ± 0.46		
YPFVLFYSKFHGLEMCVDARTFGN [KMT2E]	2.87 ± 0.51	2.28 ± 0.33		
TNTGPAGSSASTSPAPLDTCPSSS [DYRK1B]	5.24 ± 0.17	5.31 ± 0.18		
STRWEVIAEDGTKEIESQGSIPGF [TAF7L]	4.58 ± 0.067	4.54 ± 0.3		
TWHDERFLYMLMEYVPGGELFSYL [PRKX]	2.85 ± 0.7	2.75 ± 0.35		
GSHPQQTQKLEEIKENAQDTMRQI [TOR1AIP2]	5.27 ± 0.26	5.38 ± 0.24		
PNLVNLIEVFRRKRKMHLVFEYCD [CDKL4]	2.06 ± 0.64	2.07 ± 0.3		
VDADAGHNAWLSYSLLPQSTAPGL [PCDHGC5]	2.87 ± 0.33	3 ± 0.26		
ILVQTPESESPQSHRAAGSGVSDY [TRIM9]	4.49 ± 0.37	4.49 ± 0.21		
SGLDDFFLDIDTSAVEKEPARAPP [SERTAD3]	4.71 ± 0.24	4.75 ± 0.31		
SESETSTMAAKKNRQSSDKQNGRV [C18orf25]	5.35 ± 0.17	5.16 ± 0.17		
